Results taken from the nanobody polyreactivity screen of Harvey et al. (2022).

experiment: yeast display, Sf9 membrane polyspecificity reagent, FACS + sequencing; frameworks hold sequencing errors
Procedure, shortened: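 Sorting gates, low and high (top ~1%), were placed on anti-HA fluorescence to track expression and on streptavidin fluorescence to track reagent binding. A clone's polyreactivity label is taken from the gate it came out of. The reagent was 10% biotinylated, detergent-solubilized Sf9 membrane, applied for 1 hour at 4 °C to galactose-induced yeast display cells.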

Sequence	polyreactivity (PSR sort gate)
QVQLVESGGGLVQAGGSLRLSCAASGSTFYYNAMGWYRQAPGKERELVARISRSGGSTYADSVKGRFTISRDNAKNTVYLQMNSLKPEDTAVYYCNADAYGTPEFTSYAVRYDYWGQGTQVNVSS	low polyreactivity
QVQLVESGGGLVQAGGSLRLSCAASGSTFYYNAMGWYRQAPGKERELVAVITLNGGRTSYADSVKGRFTISRDNAKNTVYLQMNSLKPEDTAVYYCAADRYRGYGYWGQGTQVTVSS	low polyreactivity
QVQLVESGGGLVQAGGSLRLSCAASGSTFYYNAMGWYRQSPGKERELVARISRSGGSTYADSVKRRFTISRDNAKNTVYLQMNSLKPEDTAVYYCNAEAYGTPEFTSYAVRYDYWGQGTQVTVSS	low polyreactivity
QVQLVESGGGLVQAGGSLRLSCAASGSTFYYNGMGWYRQAPGKERELVARITRTGGSTYYADSVKGRFTISRDNAKNTVYLQMNSLKPEDTAVYYCNADYYSRTKRKYRYGYWGQGTQVTVSS	high polyreactivity
QVQLVESGGGLVQAGGSLRLSCAASGSTFYYYAMGWYRQAPGKERELVAAIRLIGGTTYYADSVKGRFTISRDNAKNTVYLQMNSLKPEDTAVYYCNARYSTGYTSPSYWGVYKHYDSWGQGTQVTVSS	low polyreactivity
QVQLVESGGGLVQAGGSLRLSCAASGSTFYYYAMGWYRQAPGKERELVAAISATGGSTYYADSVKGRFTISRDNAKNTVYLQMNSLKPEDTAVYYCAAYASRRLRTIRIFGNDYWGQGTQVTVSS	high polyreactivity
QVQLVESGGGLVQAGGSLRLSCAASGSTFYYYAMGWYRQAPGKERELVASINKIVGITDYADSVKGRFTISRDNAKNTGYLQRNSLTPEDTAVYYCAAHGRINPDVPRTDFFASEEDYWGQGTQVTVSS	low polyreactivity
QVQLVESGGGLVQAGGSLRLSCAASGSTFYYYTMGWSRQAPGKERELVAAITYSGGSTRYADSVKGRFTISRDNAKNTVYLQMNSLKPEDTAVYYCAAELTEWTNGFDYWGQGTQVTVSS	high polyreactivity
QVQLVESGGGLVQAGGSLRLSCAASGSTFYYYTMGWYRQAPGKERELVAAITYSGGSTRYADSVKGRFTISRDNAKNTVYLQMNSLKPEDTAVYYCAAGYYWSSFAFRDMDYWGQGTQVTVSS	high polyreactivity
QVQLVESGGGLVQAGGSLRLSCAASGSTFYYYTMGWYRQAPGKERELVAVISRDGRTNYADSVKGRFTISRDNAKNTVYVQMNSLKPEDTAVYYCNADYYWNGVYHYDYWGQGTQVTVSS	low polyreactivity
QVQLVESGGGLVQAGGSLRLSCAASGSTFYYYVMGWYRQAPGKERELVAAISSGGHTNYADSVKGRFTISRDNAKNTVYLQMNSLKPEDTAVYYCAAKPWRGTLLRYGYWGQGTQVTVSS	high polyreactivity
QVQLVESGGGLVQAGGSLRLSCAASGSTIADNAMGWYRQAPGKERELVAAITRSGVRTYYADSVKGRFTISRDTAKNTVYLQMNSLKPEDTAVYYCAKRTYPSRIYDYWGQGTQVTVSS	high polyreactivity
QVQLVESGGGLVQAGGSLRLSCAASGSTIDHNAMGWYRQAPGKERELVATISSSGGSTYYADSVKGRFTISRDNAKNTVYLQMNSLKPEDTAVYYCAVRAYYWRSYPYNYWGQGTQVTVSS	high polyreactivity
QVQLVESGGGLVQAGGSLRLSCAASGSTIFIYAMGWYRQAPGKERELVAAISGSGGTTYYADSVKGRFTISRDNAKITVYLQMNSLKPEDTAVYYCATDITLWYAYSHEGLYIGYYWGQGTQVSVSS	low polyreactivity
QVQLVESGGGLVQAGGSLRLSCAASGSTIFSYAMGWYRQSPGKERELVAAITYRSSRTYYADSVKGRFTISRDNAKNTVYLQMNSLKPEDTAVYYCARGGTAYRYHMDYWGQGTQVTVSS	high polyreactivity
QVQLVESGGGLVQAGGSLRLSCAASGSTIGIYAMGGYRQAPGKERELVAAISSGGSTNYGDSVKGRFTISRDNEKNTVYLQMNSLKQEDTAVYYCAVESVYEYGGYVDSAYDYWGQGTQVTVSS	low polyreactivity
QVQLVESGGGLVQAGGSLRLSCAASGSTIGPYARGWYRQAPGKERELVAAIRYSSVRTYYADSVKGRFTISRDNAKNTVYLQMKSLKPEDTAVYYCNAVFWSYTEWGRSDYWGQGTEVTVSS	low polyreactivity
QVQLVESGGGLVQAGGSLRLSCAASGSTIGRYAMGWYRQAPGKERELVASIRSSGSTYYADSVKGRFTISRDNAKNTVYLQMNSLKPEDTAVYYCNRGVYYGSRYNYWGQGTQVTVSS	high polyreactivity
QVQLVESGGGLVQAGGSLRLSCAASGSTIHYYAMGWYRQAPGKERELVAAISSSGVSTYYADSVKGRFTISRDNAKNTVYLQMNSLKPEDTAVYYCNRASVFHYRWYYYGGQGTQVTVSS	high polyreactivity
QVQLVESGGGLVQAGGSLRLSCAASGSTIIDYDMGWYRQAPGKERELVAGISWSGGRTYYADSVKGRFTISRDNAKNTVYLQMNSLKPEDTEVYYCNKVGRGARTSDYWGQGTQVTVSS	high polyreactivity
QVQLVESGGGLVQAGGSLRLSCAASGSTILRYAMGWYRQAPGKERELVATISRSDDGTYYADYVKGRFTISRDNAKNTVYLQMNSLKPEDTAVYYCGARSWYLYYYWGLGTQVTVSS	low polyreactivity
QVQLVESGGGLVQAGGSLRLSCAASGSTILVNAMGWYRQAPGKERELVAAISRGGSTYYADSVKGRFTISRDNAKNTVYLQMTSLKPEDTAVSYCAARGVYVKYYYWGQGTQVTVSS	high polyreactivity

Sequence	polyreactivity (PSR sort gate)
QVQLVESGGGLVQAGGSLRLSCAASGSTINYYAMGWYRQAPGKERELVAAISRRSGSTYYADSVKGRFTISRDNAKNTVYLQMNSLKPEDTAVYYCAAGYGGTFNWGQGTQVTVSS	high polyreactivity
QVQLVESGGGLVQAGGSLRLSCAASGSTINYYAMGWYRQAPGKERELVAAISSGTSTYYADSVKGRFTISRDNAKNTVYLQMNSLKPEDTAVYYCARRYYYQYRYDYWGQGTQVTVSS	high polyreactivity
QVQLVESGGGLVQAGGSLRLSCAASGSTIPDNTMGWYRQAPGKEREFVAAISRIGGTYYADSVKGRFTISRDNAKNYVYLQMNSLKPEDTAVYDCNAYPQGLSGRYHGFDYWGQGTQVTVST	low polyreactivity
QVQLVESGGGLVQAGGSLRLSCAASGSTIPNYAKGWYRQAPGKERELVARIRWNGDSTYYADSVKGRFTISRDNAKNTVYLQMNSLKPEDTAVYYCARQGYTLYRTRYRYDYWGQGTQVTASS	high polyreactivity
QVQLVESGGGLVQAGGSLRLSCAASGSTIPRHAMGWYRQAPGKERELVAAITSGGSTNYADSVKGRFTISRDNAKNTVYLQMNSLKPEDTAVYYCAADVIVRVYYYYYVLMDYWGQGTQVTVSS	low polyreactivity
QVQLVESGGGLVQAGGSLRLSCAASGSTIPSYAMGWYRQAPGKERELVASITYSDGTTRYADSVKGRFTISRDNAKNTVYLQMNSLKPEDTAVYYCAKYYYTSIVGYDSWGQGTQVTVSS	low polyreactivity
QVQLVESGGGLVQAGGSLRLSCAASGSTIPSYAMGWYRQAPGKERELVASITYSDGTTRYAYSVKGRFTISRDNAKNTVYLQMNSLKPEDTAVYYCNAVYYREGMDYWGQGTQVTVSS	low polyreactivity
QVQLVESGGGLVQAGGSLRLSCAASGSTIQQYAMGWYRQAPGKEREFVAAISWRGGRTYYADSVKGRFTISRDKAKNTVYLQMNSLKPEDTAVYYCAVDPSIYRLSAYYYDYWGQGTQVTVSS	low polyreactivity
QVQLVESGGGLVQAGGSLRLSCAASGSTIRYYAMGWYRQAPGKERELVAAISYGGGITNYADSVKGRFTISRDNAKNTVYLQMNSLKPEDTAVYCCAAYYRITRYDYWGQGTQVTVSS	high polyreactivity
QVQLVESGGGLVQAGGSLRLSCAASGSTISGNAMGWYRQAPGKERELVAAISQSGGSTYYADSVKGRFTISRDNAKNTVYLQMNSLKPEDTAVYYCNRLYYFLARRMDSWGQGTQVTVSS	high polyreactivity
QVQLVESGGGLVQAGGSLRLSCAASGSTISGYAMGWYRQAPGKERELVATISRGGSTNYADSVKGRFTISRDNAKNTVYLQMNSLKPEDTAVYYCAAQTYVWWVKYHSWGQGTQVTVSS	low polyreactivity
QVQLVESGGGLVQAGGSLRLSCAASGSTISSYAMGWYREAPGKERELVAAIDRSVSTNYADSVKGRFTISRDNAKNTVYLQMNSLKPEDTAVYYCNARHPTDDIVIYDYWGQGTQVTVSS	low polyreactivity
QVQLVESGGGLVQAGGSLRLSCAASGSTIVRYAMGWYRQAPGKERELVASISSGGTTNYADSVNGRFTISRDNAKNTVYLQMNSLKPEDTAVYFCNGTWAYRGHGYWGQGTQVTVSS	low polyreactivity
QVQLVESGGGLVQAGGSLRLSCAASGSTIWIYAMGWYRQAPGKERELVAAINWSGGNTYYADSVKGRFTISRDNAKNTVYLQMNSLKPEDTAVYYCAAAFYIYGVEGDYWGQGTQVTVSS	low polyreactivity
QVQLVESGGGLVQAGGSLRLSCAASGSTIYFNAMGWYRQAPGKERELVAAIDWSGGSTYYADSVKGRFTISRDNAKNTFYLHMNSLKPEDTAVYYCAAAYHYYGNTVGYADYDYWGQGNQVTVSS	low polyreactivity
QVQLVESGGGLVQAGGSLRLSCAASGSTIYFNGMGWYRQAPGKERELVAAITSGGSTDYADSVKGRFTISRDNAKNTVDLQMNSLKPEDTAVYYCAADGEDSLWTGYDYDYWGQGTQVTVSS	low polyreactivity
QVQLVESGGGLVQAGGSLRLSCAASGSTIYFYAMGWYRQAPGKERELVAAISGSGGRTYYADSVKGRFTISRDNAKNTVYLQMNSLKPEDTAVYYCAAEWYPYSDREFLYYYWGQGTQVTVSS	high polyreactivity
QVQLVESGGGLVQAGGSLRLSCAASGSTIYGYAMGWYRQAPGKERELVAAISWSGGRTYYADSVKGRFTISRDNAKNTVYLQMNSLNPVDTAVYYCNTLRRLTGRYGWSSKYYYWGQGTQVTVSS	high polyreactivity
QVQLVESGGGLVQAGGSLRLSCAASGSTIYNNAMGWYRQAPGKERELVAAITRTGGRTYYADSVKGRFTITRDNAKNTVYLQMNSLKREDTAVYYCAATYPSGRDLSFDYWGQGTQVTVSS	high polyreactivity
QVQLVESGGGLVQAGGSLRLSCAASGSTIYRNTMGWYRQAPGKERELVAAISRSGSSTYYADSVKGRFTISRDNAKNTVFLQINSLKPEDTAVYYCAKEGLSYRYYYWGQGTQLTVSS	high polyreactivity
QVQLVESGGGLVQAGGSLRLSCAASGSTIYSYTMGWYRQAPGKERELVAAISRGSSTYYADSVKGRFTISRDNAKNTVYLQMNSLKPEDTAVYYCAAQYRQIYYSYFEYYWGQGTQVTVSS	high polyreactivity
